The record followed here is US20230134571A1 (INTERNATIONAL AIDS VACCINE INITIATIVE, published 2023).

Some results are limits rather than exact numbers.

Common to all, as to test: cell-based or functional assay
The target of experiment [1] is HIV Env of isolate 6811.v7.c18 (clade CD) (HIV).
In experiment [2] the target is HIV Env of isolate Q461.e2 (clade A) (HIV).
For experiment [3], the target named is HIV Env of isolate T257-31 (clade AG) (HIV).
Experiment [4] deals with HIV Env of isolate 1056_10_TA11_1826 (clade B) (HIV).
For experiment [5], the target named is HIV Env of isolate PVO.4 (clade B) (HIV).
Experiment [6] concerns the target HIV Env of isolate RHPA4259.7 (clade B) (HIV).
The target in experiment [7] is HIV Env of isolate SC422661.8 (clade B) (HIV).
For experiment [8], the target named is HIV Env of isolate 246FC1G (clade C) (HIV).
Experiment [9] has as its target HIV Env of isolate Ce0682_E4 (clade C) (HIV).
Experiment [10] concerns the target HIV Env of isolate Ce2010_F5 (clade C) (HIV).
The target of experiment [11] is HIV Env of isolate Du156.12 (clade C) (HIV).
For experiment [12], the target named is HIV Env, isolate SC05_8C11_2344 (HIV).
The target in experiment [13] is HIV Env, isolate CNE52 (HIV).
For experiment [14], the target named is HIV Env, isolate 246FC1G (HIV).
Experiment [15] has as its target HIV Env, isolate Ce0682_E4 (HIV).
Experiment [16] deals with HIV Env, isolate HIV-16845-2.22 (HIV).
Experiment [17] concerns the target HIV Env, isolate 6952.v1.c20 (HIV).
Experiment [18] has as its target HIV Env, isolate 231965.c01 (HIV).
The target in experiment [19] is HIV Env, isolate X1193_C1 (HIV).

B1: ePGDM13 (antibody, V domains shown)
VH: QAQLVQSGPEVRKPGTSVKVSCKNPGNTLTTYDLHWVRQVPGQGLQWMGWISHEGDKKVIVERFKAKVTIDWDRSTNTAYLQLSGLTSEDTAVYYCAKGSKHRLRDYALYDEDGALNWAVDVDYLANLEFWGQGTAVTVSS
VL: DIVLTQSPLSLSVTPGESASISCKSSHSLQHGDRNNYLAWYVQKPGRSPQLLLDLASERASGVPDRFSGSGSEKDFTLKISRVETEDVGTYYCMQGRESPWTFGQGTKVDIK
With B1, the “IC50 (µg/ml) with constrains” value in experiment [1] was over 100 µg/mL; in experiment [2], 0.132 µg/mL; in experiment [3] it was 0.02 µg/mL; in [4], 1.51 µg/mL; in [5], 2.95 µg/mL; in experiment [6], 0.358 µg/mL. Also, the “IC50 (µg/ml) with constrains” value was 1.56 µg/mL in experiment [7]; over 100 µg/mL in experiment [8]; 0.011 µg/mL in experiment [9]; over 100 µg/mL in experiment [10]; 0.006 µg/mL in [11]. Further, the “IC80 (µg/ml) with constrains” value in experiment [2] is 0.528 µg/mL; in experiment [3], 0.078 µg/mL.

B2: PGDM1400 (antibody, V domains shown)
VH: QVHLTQSGPEVRKPGTSVKVSCKAPGNTLKTYDLHWVRSVPGQGLQWMGWISHEGDKKVIVERFKAKVTIDWDRSTNTAYLQLSGLTSGDTAVYYCAKGSKHRLRDYALYDDDGALNWAVDVDYLSNLEFWGQGTAVTVSS
VL: DFVLTQSPHSLSVTPGESASISCKSSHSLIHGDRNNYLAWYVQKPGRSPQLLIYLASSRASGVPDRFSGSGSDKDFTLKISRVETEDVGTYYCMQGRESPWTFGQGTKVDIK
For B2, the “IC50 (µg/ml) with constrains” value in experiment [1] was over 100 µg/mL; in [2], 0.143 µg/mL; in experiment [3], 0.138 µg/mL; in experiment [4] it was 3.38 µg/mL; in experiment [5] it was 3.41 µg/mL; in [6] it was 0.491 µg/mL. The “IC50 (µg/ml) with constrains” value was 15.7 µg/mL in [7]; over 100 µg/mL in experiment [8]; 0.009 µg/mL in experiment [9]; over 100 µg/mL in experiment [10]; 0.006 µg/mL in experiment [11]. Also, the entries for the “IC80 (µg/ml) with constrains” value in experiment [2] and in experiment [3] were 0.572 µg/mL and 0.552 µg/mL, respectively.

B3: PGDM1400 (antibody, V domains shown)
VH: QVHLTQSGPEVRKPGTSVKVSCKAPGNTLKTYDLHWVRSVPGQGLQWMGWISHEGDKKVIVERFKAKVTIDWDRSTNTAYLQLSGLTSGDTAVYYCAKGSKHRLRDYALYDDDGALNWAVDVDYLSNLEFWGQGTAVTVSS
VL: DFVLTQSPHSLSVTPGESASISCKSSHSLIHGDRNNYLAWYVQKPGRSPQLLIYLASSRASGVPDRFSGSGSDKDFTLKISRVETEDVGTYYCMQGRESPWTFGQGTKVDIK
In the case of B3, the “IC80 (µg/ml) with constrains” value in experiment [12] was 17.8 µg/mL; in experiment [13], over 100 µg/mL; in [14], over 100 µg/mL; in experiment [15], 0.037 µg/mL; in experiment [16] it was over 100 µg/mL; in [17], 7.03 µg/mL. Further, the “IC80 (µg/ml) with constrains” value in experiment [18] amounted to 0.242 µg/mL; in experiment [19], 0.374 µg/mL.

B4: ePGDM13 (antibody, V domains shown)
VH: QAQLVQSGPEVRKPGTSVKVSCKNPGNTLTTYDLHWVRQVPGQGLQWMGWISHEGDKKVIVERFKAKVTIDWDRSTNTAYLQLSGLTSEDTAVYYCAKGSKHRLRDYALYDEDGALNWAVDVDYLANLEFWGQGTAVTVSS
VL: DIVLTQSPLSLSVTPGESASISCKSSHSLQHGDRNNYLAWYVQKPGRSPQLLLDLASERASGVPDRFSGSGSEKDFTLKISRVETEDVGTYYCMQGRESPWTFGQGTKVDIK
In the case of B4, the “IC80 (µg/ml) with constrains” value was 9.44 µg/mL in experiment [12]; 11.3 µg/mL in experiment [13]; over 100 µg/mL in [14]; 0.043 µg/mL in experiment [15]; over 100 µg/mL in [16]; 0.318 µg/mL in experiment [17]. In addition, the figures for the “IC80 (µg/ml) with constrains” value in experiment [18] and in experiment [19] were 0.058 µg/mL and 0.381 µg/mL, respectively.

B5: ePGDM9 (antibody, V domains shown)
VH: QAQLVQSGPEVRKPGTSVKVSCKNPGNTLTTYDLHWVRQVPGQGLQWMGWISHEGDKKVIVERFKAKVTIDWDRSTNTAYLQLSGLTSEDTAVYYCAKGSKHRLRDYALYDEDGALNWAVDVDYLANLEFWGQGTAVTVSS
VL: DIVLTQSPLSLSVTPGESASISCKSSQSLIHGDRNNYLAWYVQKPGRSPQLLIDLASERASGVPDRFSGSGSRKDFTLKISRVETEDVGTYYCMQGRESPWTFGQGTKVDIK
As to B5, the “IC50 (µg/ml) with constrains” value in experiment [1] is over 100 µg/mL; in experiment [2], 0.06 µg/mL; in experiment [3] it was 0.019 µg/mL; in [4] it was 0.903 µg/mL; in experiment [5], 1.93 µg/mL; in experiment [6], 0.145 µg/mL. The “IC50 (µg/ml) with constrains” value in [7] was 1.33 µg/mL; in experiment [8] it was over 100 µg/mL; in [9], 0.005 µg/mL; in [10], over 100 µg/mL; in experiment [11] it was 0.004 µg/mL. Also, the “IC80 (µg/ml) with constrains” value is 0.24 µg/mL in experiment [2] and 0.076 µg/mL in experiment [3].

B6: ePGDM5 (antibody, V domains shown)
VH: QAQLVQSGPEVRKPGTSVKVSCKNPGNTLTTYDLHWVRQVPGQGLQWMGWISHEGDKKVIVERFKAKVTIDWDRSTNTAYLQLSGLTSEDTAVYYCAKGSKHRLRDYALYDEDGALNWAVDVDYLANLEFWGQGTAVTVSS
VL: DFVLTQSPLSLSVTPGESASISCKSDHSLQHGDRNNYLAWYVQKPGRSPQLLIDLASERASGVPDRFSGSGSRKDFTLKIDRVEAEDVGTYYCMQGRESPWTFGQGTKVDIK
For B6, the “IC80 (µg/ml) with constrains” value was 14.5 µg/mL in [12]; 24.6 µg/mL in experiment [13]; over 100 µg/mL in experiment [14]; 0.021 µg/mL in experiment [15]; over 100 µg/mL in experiment [16]; 0.132 µg/mL in [17]. Besides, the “IC80 (µg/ml) with constrains” value amounted to 0.035 µg/mL in experiment [18] and 0.156 µg/mL in experiment [19].

B7: ePGDM5 (antibody, V domains shown)
VH: QAQLVQSGPEVRKPGTSVKVSCKNPGNTLTTYDLHWVRQVPGQGLQWMGWISHEGDKKVIVERFKAKVTIDWDRSTNTAYLQLSGLTSEDTAVYYCAKGSKHRLRDYALYDEDGALNWAVDVDYLANLEFWGQGTAVTVSS
VL: DFVLTQSPLSLSVTPGESASISCKSDHSLQHGDRNNYLAWYVQKPGRSPQLLIDLASERASGVPDRFSGSGSRKDFTLKIDRVEAEDVGTYYCMQGRESPWTFGQGTKVDIK
As for B7, the “IC50 (µg/ml) with constrains” value is over 100 µg/mL in [1]; 0.104 µg/mL in [2]; 0.016 µg/mL in [3]; 0.893 µg/mL in experiment [4]; 1.39 µg/mL in experiment [5]; 0.464 µg/mL in experiment [6]. Further, the “IC50 (µg/ml) with constrains” value in experiment [7] is 1.33 µg/mL; in experiment [8], over 100 µg/mL; in [9], 0.005 µg/mL; in [10] it was over 100 µg/mL; in experiment [11], 0.006 µg/mL. Besides, the “IC80 (µg/ml) with constrains” value in experiment [2] is 0.415 µg/mL; in experiment [3], 0.064 µg/mL.
